# B1: His-E2-S23D (amino acids 1-200), recombinant (domain or fragment, human papillomavirus 16 (HPV16), UniProt P03120 1-200, looked up)
# chain: METLCQRLNVCQDKILTHYENDDTDLRDHIDYWKHMRLECAIYYKAREMGFKHINHQVVPTLAVSKNKALQAIELQLTLETIYNSQYSNEKWTLQDVSLEVYLTAPTGCIKKHGYTVEVQFDGDICNTMHYTNWTHIYICEEASVTVVEGQVDYYGLYYVHEGIRTYFVQFKDDAEKYSKNKVWEVHAGGQVILCPTSVF
# Target: GST-TopBP1 (aa 32-1522) His, recombinant (UniProt Q92547 32-1522)
# Assay: pull-down
# Sequence of GST-TopBP1 (aa 32-1522) His, recombinant (Q92547 32-1522): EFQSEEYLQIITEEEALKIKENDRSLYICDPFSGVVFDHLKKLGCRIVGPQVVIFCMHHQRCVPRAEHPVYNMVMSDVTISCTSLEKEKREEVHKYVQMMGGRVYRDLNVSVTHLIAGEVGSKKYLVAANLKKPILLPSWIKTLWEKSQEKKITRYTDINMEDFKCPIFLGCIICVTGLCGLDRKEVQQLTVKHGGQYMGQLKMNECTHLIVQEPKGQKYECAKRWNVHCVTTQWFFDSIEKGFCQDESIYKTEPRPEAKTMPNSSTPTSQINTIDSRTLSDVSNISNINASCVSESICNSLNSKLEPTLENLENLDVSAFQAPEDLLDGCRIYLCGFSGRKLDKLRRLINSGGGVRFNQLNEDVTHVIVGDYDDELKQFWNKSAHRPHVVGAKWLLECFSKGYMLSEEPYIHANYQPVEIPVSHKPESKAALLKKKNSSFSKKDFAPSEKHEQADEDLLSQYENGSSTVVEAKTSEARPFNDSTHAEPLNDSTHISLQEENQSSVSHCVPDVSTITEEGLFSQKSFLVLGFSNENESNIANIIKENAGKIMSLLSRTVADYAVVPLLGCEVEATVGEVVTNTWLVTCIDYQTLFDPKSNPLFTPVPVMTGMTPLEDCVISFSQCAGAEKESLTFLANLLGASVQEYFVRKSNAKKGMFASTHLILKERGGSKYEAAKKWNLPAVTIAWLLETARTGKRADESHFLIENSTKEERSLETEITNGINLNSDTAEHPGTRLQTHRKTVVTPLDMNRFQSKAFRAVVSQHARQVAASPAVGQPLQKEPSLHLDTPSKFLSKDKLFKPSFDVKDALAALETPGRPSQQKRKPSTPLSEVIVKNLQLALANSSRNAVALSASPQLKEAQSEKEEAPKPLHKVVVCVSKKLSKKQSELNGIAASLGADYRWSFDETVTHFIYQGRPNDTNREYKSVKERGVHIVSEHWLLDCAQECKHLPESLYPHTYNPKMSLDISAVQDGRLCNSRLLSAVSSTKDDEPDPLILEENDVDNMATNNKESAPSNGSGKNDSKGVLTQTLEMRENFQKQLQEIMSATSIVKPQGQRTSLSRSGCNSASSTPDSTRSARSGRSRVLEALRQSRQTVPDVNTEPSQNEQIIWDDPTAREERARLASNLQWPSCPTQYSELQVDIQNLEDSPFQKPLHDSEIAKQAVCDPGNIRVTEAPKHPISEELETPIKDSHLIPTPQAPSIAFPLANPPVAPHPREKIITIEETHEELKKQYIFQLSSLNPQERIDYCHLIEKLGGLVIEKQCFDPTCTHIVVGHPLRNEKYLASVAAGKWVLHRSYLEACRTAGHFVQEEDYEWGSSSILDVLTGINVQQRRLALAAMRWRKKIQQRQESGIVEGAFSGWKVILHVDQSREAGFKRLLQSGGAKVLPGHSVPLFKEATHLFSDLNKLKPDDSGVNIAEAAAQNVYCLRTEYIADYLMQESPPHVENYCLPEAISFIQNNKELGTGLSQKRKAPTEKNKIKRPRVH
binder,measurement,value
B1,binding result,binds
